# Results as given in US20240059789A1 (Janssen / Centocor, published 2024).
# Numbering of substitutions follows the chain as printed.
# B1: PS3B921 (bispecific antibody, human IgG1, lambda, L234A L235A)
# heavy 1: QVQLQQSGPRLVRPSQTLSLTCAISGDSVFNNNAAWSWIRQSPSRGLEWLGRTYYRSKWLYDYAVSVKSRITVNPDTSRNQFTLQLNSVTPEDTALYYCARGYSSSFDYWGQGTLVTVSSASTKGPSVFPLAPSSKSTSGGTAALGCLVKDYFPEPVTVSWNSGALTSGVHTFPAVLQSSGLYSLSSVVTVPSSSLGTQTYICNVNHKPSNTKVDKKVEPKSCDKTHTCPPCPAPEAAGGPSVFLFPPKPKDTLMISRTPEVTCVVVSVSHEDPEVKFNWYVDGVEVHNAKTKPREEQYNSTYRVVSVLTVLHQDWLNGKEYKCKVSNKALPAPIEKTISKAKGQPREPQVYTLPPSREEMTKNQVSLTCLVKGFYPSDIAVEWESNGQPENNYKTTPPVLDSDGSFLLYSKLTVDKSRWQQGNVFSCSVMHEALHNHYTQKSLSLSPG
# light 1: QSALTQPASVSGSPGQSITISCTGTSSNIGTYKFVSWYQQHPDKAPKVLLYEVSKRPSGVSSRFSGSKSGNTASLTISGLQAEDQADYHCVSYAGSGTLLFGGGTKLTVLGQPKAAPSVTLFPPSSEELQANKATLVCLISDFYPGAVTVAWKADSSPVKAGVETTTPSKQSNNKYAASSYLSLTPEQWKSHRSYSCQVTHEGSTVEKTVAPTECS
# heavy 2: EVQLVESGGGLVQPGGSLRLSCAASGFTFSSYAMSWVRQAPGKGLEWVSAISGGIGSTYYADSVKGRFTISRDNSKNTLWLQMNSLRAEDTAVYYCAKDGVGATPYYFDYWGQGTLVTVSSASTKGPSVFPLAPSSKSTSGGTAALGCLVKDYFPEPVTVSWNSGALTSGVHTFPAVLQSSGLYSLSSVVTVPSSSLGTQTYICNVNHKPSNTKVDKKVEPKSCDKTHTCPPCPAPEAAGGPSVFLFPPKPKDTLMISRTPEVTCVVVSVSHEDPEVKFNWYVDGVEVHNAKTKPREEQYNSTYRVVSVLTVLHQDWLNGKEYKCKVSNKALPAPIEKTISKAKGQPREPQVYTLPPSREEMTKNQVSLTCLVKGFYPSDIAVEWESNGQPENNYKTTPPVLDSDGSFFLYSRLTVDKSRWQQGNVFSCSVMHEALHNHYTQKSLSLSPG
# light 2: QSVLTQPPSVSAAPGQKVTISCSGSSSNIGINYVSWYQQLPGTAPKLLIYDNNKRPSGIPDRFSGSKSGTSATLGITGLQTGDEADYYCGTWDSSLSAVVFGGGTKLTVLGQPKAAPSVTLFPPSSEELQANKATLVCLISDFYPGAVTVAWKADSSPVKAGVETTTPSKQSNNKYAASSYLSLTPEQWKSHRSYSCQVTHEGSTVEKTVAPTECS
# B2: PS3B932 (bispecific antibody, human IgG1, kappa, lambda, L234A L235A)
# heavy 1: EVQLVESGGGLVKPGGSLRLSCAASGFTFSRYNMNWVRQAPGKGLEWVSSISTSSNYIYYADSVKGRFTFSRDNAKNSLDLQMSGLRAEDTAIYYCTRGWGPFDYWGQGTLVTVSSASTKGPSVFPLAPSSKSTSGGTAALGCLVKDYFPEPVTVSWNSGALTSGVHTFPAVLQSSGLYSLSSVVTVPSSSLGTQTYICNVNHKPSNTKVDKKVEPKSCDKTHTCPPCPAPEAAGGPSVFLFPPKPKDTLMISRTPEVTCVVVSVSHEDPEVKFNWYVDGVEVHNAKTKPREEQYNSTYRVVSVLTVLHQDWLNGKEYKCKVSNKALPAPIEKTISKAKGQPREPQVYTLPPSREEMTKNQVSLTCLVKGFYPSDIAVEWESNGQPENNYKTTPPVLDSDGSFLLYSKLTVDKSRWQQGNVFSCSVMHEALHNHYTQKSLSLSP
# light 1: DIQMTQSPSSLSASVGDRVTITCRARQSIGTAIHWYQQKPGKAPKLLIKYASESISGVPSRFSGSGSGTDFTLTISSLQPEDFATYYCQQSGSWPYTFGQGTKLEIKRTVAAPSVFIFPPSDEQLKSGTASVVCLLNNFYPREAKVQWKVDNALQSGNSQESVTEQDSKDSTYSLSSTLTLSKADYEKHKVYACEVTHQGLSSPVTKSFNRGEC
# heavy 2: B1 heavy 2
# light 2: B1 light 2 with I31N, V99Y, G103T, L107V
# B3: PS3B918 (bispecific antibody, human IgG1, lambda, L234A L235A)
# heavy 1: B1 heavy 1
# light 1: B1 light 1
# heavy 2: EVQLVESGGGLVKPGGSLRLSCAASGFTFSRYNMNWVRQAPGKGLEWVSSINSNSRYIYYADSVKGRFTISRDSAKNSLYLQMNSLRAEDTAVYYCAKTMGDYYYYYGMDVWGQGTTVTVSSASTKGPSVFPLAPSSKSTSGGTAALGCLVKDYFPEPVTVSWNSGALTSGVHTFPAVLQSSGLYSLSSVVTVPSSSLGTQTYICNVNHKPSNTKVDKKVEPKSCDKTHTCPPCPAPEAAGGPSVFLFPPKPKDTLMISRTPEVTCVVVSVSHEDPEVKFNWYVDGVEVHNAKTKPREEQYNSTYRVVSVLTVLHQDWLNGKEYKCKVSNKALPAPIEKTISKAKGQPREPQVYTLPPSREEMTKNQVSLTCLVKGFYPSDIAVEWESNGQPENNYKTTPPVLDSDGSFFLYSRLTVDKSRWQQGNVFSCSVMHEALHNHYTQKSLSLSPG
# light 2: SSELTQPPSVSGAPGQRVTISCAGSLSNIGAGYDVHWYQQLPGTAPKLLIYGNINRLSGVPERFSGSKSGTSASLAITGLQAEDGADYYCQSYDSSLSSYVFGTGTKVTVLGQPKAAPSVTLFPPSSEELQANKATLVCLISDFYPGAVTVAWKADSSPVKAGVETTTPSKQSNNKYAASSYLSLTPEQWKSHRSYSCQVTHEGSTVEKTVAPTECS
# B4: PS3B925 (bispecific antibody, human IgG1, kappa, lambda, L234A L235A)
# heavy 1: B2 heavy 1
# light 1: B2 light 1
# heavy 2: B1 heavy 2 with A23T, T28I, I55Y, S57A, T58P, S63T, W80Y, Y110D, T115I
# light 2: B1 light 2 with I31N, Y50F, V99Y, G103T, L107V
# B5: PS3B922 (bispecific antibody, human IgG1, lambda, L234A L235A)
# heavy 1: B1 heavy 1
# light 1: B1 light 1
# heavy 2: B1 heavy 2 with I55S, W80Y, T91S
# light 2: B1 light 2
# B6: PS3B931 (bispecific antibody, human IgG1, kappa, lambda, L234A L235A)
# heavy 1: B2 heavy 1
# light 1: B2 light 1
# heavy 2: B3 heavy 2
# light 2: B3 light 2
# B7: PS3B926 (bispecific antibody, human IgG1, kappa, lambda, L234A L235A)
# heavy 1: B2 heavy 1
# light 1: B2 light 1
# heavy 2: not shown
# light 2: not shown
# B8: PS3B928 (bispecific antibody, human IgG1, kappa, lambda, L234A L235A)
# heavy 1: B2 heavy 1
# light 1: B2 light 1
# heavy 2: not shown
# light 2: not shown
# Biological target: Human PSMA on prostate cancer cell lines (C4-2B, 22RV1) (human, UniProt Q04609 1-750)
# Assay: cell-based or functional assay
# Chain of Human PSMA on prostate cancer cell lines (C4-2B, 22RV1) (Q04609 whole entry): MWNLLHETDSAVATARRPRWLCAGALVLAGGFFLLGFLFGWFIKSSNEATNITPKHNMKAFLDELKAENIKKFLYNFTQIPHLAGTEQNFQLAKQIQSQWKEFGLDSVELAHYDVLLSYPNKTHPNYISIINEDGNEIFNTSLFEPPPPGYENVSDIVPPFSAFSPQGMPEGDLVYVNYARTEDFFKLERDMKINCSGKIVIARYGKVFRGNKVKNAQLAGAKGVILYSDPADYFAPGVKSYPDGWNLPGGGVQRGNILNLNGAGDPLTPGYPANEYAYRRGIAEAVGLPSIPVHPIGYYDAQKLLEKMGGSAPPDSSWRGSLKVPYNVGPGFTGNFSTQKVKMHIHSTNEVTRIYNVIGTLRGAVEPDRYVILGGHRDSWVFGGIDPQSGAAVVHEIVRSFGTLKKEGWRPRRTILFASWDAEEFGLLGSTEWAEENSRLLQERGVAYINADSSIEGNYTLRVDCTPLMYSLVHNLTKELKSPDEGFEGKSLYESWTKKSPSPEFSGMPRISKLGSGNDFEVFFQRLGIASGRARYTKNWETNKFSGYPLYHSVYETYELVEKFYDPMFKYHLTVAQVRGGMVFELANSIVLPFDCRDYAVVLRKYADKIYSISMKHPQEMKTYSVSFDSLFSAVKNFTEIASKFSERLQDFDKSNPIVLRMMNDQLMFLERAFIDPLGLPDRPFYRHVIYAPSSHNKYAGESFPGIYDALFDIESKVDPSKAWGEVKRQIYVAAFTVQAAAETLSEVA
row,Binder,"Tumor killing EC50 [M] (C4-2B + PAN-T cells, 72 h, flow cytometry)"
1,B1,3.11e-11
2,B2,6.42e-12
3,B3,1e-08
4,B4,7.98e-12
5,B5,7.79e-11
6,B6,1e-08
7,B7,4.78e-11
8,B8,4.81e-10

# Biological target: Human CD3 on T cells / Jurkat cells (human, UniProt P07766 23-207)
# Assay: cell-based or functional assay
# Chain of Human CD3 on T cells / Jurkat cells (P07766 23-207 limits assumed): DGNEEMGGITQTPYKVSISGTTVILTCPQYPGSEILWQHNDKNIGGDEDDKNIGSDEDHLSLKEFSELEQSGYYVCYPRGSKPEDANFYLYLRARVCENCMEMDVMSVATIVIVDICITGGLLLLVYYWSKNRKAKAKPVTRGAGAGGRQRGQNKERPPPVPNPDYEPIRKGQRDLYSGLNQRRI
row,Binder,"T cell activation EC50 [M] (CD25+ T cells, C4-2B co-culture, 72 h)"
1,B1,2.11e-11
2,B2,1.2e-11
3,B3,1e-08
4,B4,4.59e-12
5,B5,5.85e-11
6,B6,1e-08
7,B7,3.45e-11
8,B8,1.84e-10
